This note sets out measurements from article PMC3675359, “GxcC connects Rap and Rac signaling during Dictyostelium development” (BMC Cell Biology, 2013).

The target in this test is T1, NtermGxcC (aa 1-633), recombinant GST-ARM purified from E. coli (Dictyostelium discoideum, UniProt Q54P24 1-633).
T1 construct: GxcC, Dictyostelium discoideum, UniProt Q54P24; aa 1-633 as printed, from pGEX4T3; the cloning paragraph says that the N-terminal fragment of base pairs 1-1911 (637 codons) was ligated into pGEX 4T3; also called ARM domain of GxcC; purified GxcC ARM domain; not shown: GST, N-terminal, kept
T1 sequence (looked up): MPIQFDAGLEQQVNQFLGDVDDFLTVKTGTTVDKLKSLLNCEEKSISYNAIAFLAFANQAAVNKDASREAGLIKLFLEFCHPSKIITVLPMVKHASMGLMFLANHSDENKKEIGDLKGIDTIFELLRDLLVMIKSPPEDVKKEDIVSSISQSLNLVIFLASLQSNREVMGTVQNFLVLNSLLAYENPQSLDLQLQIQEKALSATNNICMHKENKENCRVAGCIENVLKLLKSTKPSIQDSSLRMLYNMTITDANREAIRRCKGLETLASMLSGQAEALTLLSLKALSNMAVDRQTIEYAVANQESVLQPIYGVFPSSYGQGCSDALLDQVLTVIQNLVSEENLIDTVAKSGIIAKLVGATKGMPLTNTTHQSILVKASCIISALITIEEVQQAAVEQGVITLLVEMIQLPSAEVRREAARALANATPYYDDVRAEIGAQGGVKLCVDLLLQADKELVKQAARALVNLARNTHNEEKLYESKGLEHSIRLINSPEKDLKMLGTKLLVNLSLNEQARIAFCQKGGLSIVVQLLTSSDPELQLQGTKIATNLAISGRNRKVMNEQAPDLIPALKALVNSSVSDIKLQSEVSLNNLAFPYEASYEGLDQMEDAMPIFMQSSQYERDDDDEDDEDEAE
In words: guanine nucleotide dissociation inhibition (GDI) assay; G-protein loaded with mGppNHp incubated with an excess of unlabelled nucleotide; decay of fluorescence (kobs) at varying concentrations of GST-ARM. The note with it: both partners purified.

B1: RapA purified from E. coli (loaded with mGppNHp or mGDP) (natural protein, Dictyostelium discoideum, UniProt P18613 1-186, looked up)
chain: MPLREFKIVVLGSGGVGKSALTVQFVQGIFVEKYDPTIEDSYRKQVEVDSNQCMLEILDTAGTEQFTAMRDLYMKNGQGFVLVYSIISNSTFNELPDLREQILRVKDCEDVPMVLVGNKCDLHDQRVISTEQGEELARKFGDCYFLEASAKNKVNVEQIFYNLIRQINRKNPVGPPSKAKSKCALL
notes: RapA, Dictyostelium discoideum; Loaded with the fluorescent nucleotide mGppNHp (or mGDP); It may be the GST-RapA of the screen with or without its GST; source: E. coli, purified
Take B1: the Kd came out at 13.3 µM.

In general, Kd refers to the free concentration of one partner at which half of the binding sites on the other are occupied at equilibrium, for simple one-to-one binding.
